Reference: the Human Domainome abundance scans (Beltran et al. 2025)

B1: Membrane-associated guanylate kinase, WW and PDZ domain-containing protein 2, residues 601 to 682; numbered along this chain, Q86UL8 (parent)
chain: AELMTLTIVKGAQGFGFTIADSPTGQRVKQILDIQGCPGLCEGDLIVEINQQNVQNLSHTEVVDILKDCPIGSETSLIIHRG

Variants of: B1
Assay: abundance fitness (aPCA) (normalised: wild type 0, dead -1); higher = more abundant; growth selection in yeast, the domain comes from the species named
Details: Homo sapiens

Abundance fitness: each site, then its substitutions
N53: E -0.043 | S -0.022 | I -0.076 | G -0.051 | P -0.001 | W -0.201 | D -0.025 | T -0.042 | H -0.045 | Q -0.025 | F -0.095 | R -0.061 | Y -0.064 | A -0.097
E42: G -0.114 | I -0.087 | W -0.171 | F -0.123 | S -0.049 | V -0.062 | M 0.036 | R -0.1 | T -0.015 | N -0.087 | D -0.152 | H -0.23 | P 0.061 | C -0.123 | K -0.016 | L -0.028
I49: A -0.173 | G -1.08 | L 0.011 | Y -0.14 | M -0.195 | F -0.065 | T -0.371 | C -0.094 | W -0.241 | S -0.97 | R -0.875 | P -1.01 | V 0.072 | H -0.964
H59: S -0.038 | Q -0.014 | M 0.065 | P -0.094 | A -0.088 | K -0.132 | E 0.126 | G -0.018 | L -0.01 | T -0.132 | N -0.009 | D -0.176 | I -0.142 | R -0.009 | W -0.074 | Y -0.109
L57: W -0.13 | H -0.008 | N 0.076 | M -0.283 | C -0.046 | G -0.152 | T -0.128 | K -0.108 | D -0.109 | E -0.038 | Q -0.081 | S 0.028 | V -0.029
C41: K -0.036 | E 0.01 | F 0.016 | S 0.027 | G -0.046 | W -0.058 | R -0.022 | P -1.02 | H 0.144 | A 0.042 | N -0.012 | T 0.046 | D 0.036 | L -0.005 | Q -0.001 | I 0.057 | M -0.04
L40: M -0.254 | P -0.232 | T -0.498 | S -0.616 | G -0.752 | A -0.108 | V -0.061 | F 0.047
L45: W -0.161 | A -0.088 | M 0.089 | V -0.232 | G -0.096 | S 0.256 | R -0.244
G43: L 0 | F -0.275 | K 0.199 | A -0.086 | C -0.187 | S -0.104 | W -0.206 | E 0.059 | H 0.004 | T -0.121 | M -0.261 | Q 0.068 | V -0.761 | D 0.023 | R -0.182
T60: R -0.038 | Y -0.165 | W -0.075 | D -0.136 | E -0.051 | L -0.011 | M 0.012 | C 0.17 | V 0.004 | N 0.054 | A 0.146 | P -0.198 | S -0.032 | K -0.003
I46: T -0.587 | V -0.079 | M 0.164 | L 0.236
V63: E -0.028 | C -0.192 | H -0.493 | A 0.001 | D 0.145 | F -0.432 | G -0.067
Q55: D -0.111 | S -0.172 | C -0.111 | I -0.02 | G 0.073 | F 0.043 | L -0.106 | E -0.029 | V -0.027 | A -0.069 | R 0.004 | K -0.276 | N 0.039 | W -0.133 | M -0.01
G39: R -0.167 | P -0.083 | W -0.211 | V -0.392 | S -0.035 | T -0.017 | N -0.043
